Source: article PMC4538796

Tests used:
[1] = target: GAGAH (GAGA zinc finger/AT-Hook conjugate) (UniProt Q08605); experiment: fluorescence anisotropy; details: Zn2+, Anisotropy (given for GAGAH): 20 mM Tris-HCl pH 7.5, 100 mM NaCl, 0.02 mM ZnCl2, 20 C, 25 nM TMR-DNA, EMSA: 75 nM dsDNA, rt (GAGAH), 10% native PAGE, 0.5x TBE …
[2] = target: brH (GCN4 basic region/AT-Hook conjugate) (UniProt P03069); experiment: fluorescence anisotropy; details: 20 C; 25 nM DNA; apparent; Anisotropy (given for GAGAH): 20 mM Tris-HCl pH 7.5, 100 mM NaCl, 0.02 mM ZnCl2, 20 C, 25 nM TMR-DNA; EMSA: 75 nM dsDNA, rt (GAGAH), 10% native PAGE, 0.5x TBE …

Chain of UniProt Q08605 (Q08605 other isoform, or with tags, fused parts or gaps, change not shown): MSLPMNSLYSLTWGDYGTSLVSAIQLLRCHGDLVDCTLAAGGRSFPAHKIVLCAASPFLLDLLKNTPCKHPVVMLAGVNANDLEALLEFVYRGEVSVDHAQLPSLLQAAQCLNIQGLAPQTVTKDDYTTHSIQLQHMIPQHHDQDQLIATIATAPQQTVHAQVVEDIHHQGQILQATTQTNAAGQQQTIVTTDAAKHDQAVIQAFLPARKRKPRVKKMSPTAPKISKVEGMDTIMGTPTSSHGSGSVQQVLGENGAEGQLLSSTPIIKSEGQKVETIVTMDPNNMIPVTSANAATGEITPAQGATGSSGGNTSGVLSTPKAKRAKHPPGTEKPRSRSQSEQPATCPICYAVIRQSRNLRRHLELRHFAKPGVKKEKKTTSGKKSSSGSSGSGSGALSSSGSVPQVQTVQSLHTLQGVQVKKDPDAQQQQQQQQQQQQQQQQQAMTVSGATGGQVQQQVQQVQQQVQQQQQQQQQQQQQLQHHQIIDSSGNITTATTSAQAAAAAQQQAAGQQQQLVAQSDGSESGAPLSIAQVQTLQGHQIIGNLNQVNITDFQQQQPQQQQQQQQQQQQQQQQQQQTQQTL

Sequence: CGCGTCATAATTGAGAGCGC (double strand) [TMR-AP1hs·AT = TMR-AT·GAGA]
- Kd ([1]; 20 C, 25 nM DNA, apparent): 26 nM
- Kd ([1]; excess calf thymus DNA competitor): 42 nM
- Kd [2]: 28 nM
